# Test results reported in patent publication US20110002929A1 (Ablynx, published 2011).
# T1: mouse RANK-L (mouse, UniProt O35235 158-316, limits assumed)
# T1 construct: also called murine RANK-L
# T1 sequence (looked up): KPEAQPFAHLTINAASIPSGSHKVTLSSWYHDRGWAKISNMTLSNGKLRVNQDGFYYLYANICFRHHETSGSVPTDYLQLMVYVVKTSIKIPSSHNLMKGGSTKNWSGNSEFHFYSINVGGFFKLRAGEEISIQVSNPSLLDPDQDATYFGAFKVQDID
# T2: human RANK-L (human, UniProt O14788 140-317, limits assumed)
# T2 construct: Soluble protein, used coated, biotinylated or labelled in ELISA, AlphaScreen, FMAT and Biacore; also called hRANK-L; soluble human RANK-L
# T2 sequence (looked up): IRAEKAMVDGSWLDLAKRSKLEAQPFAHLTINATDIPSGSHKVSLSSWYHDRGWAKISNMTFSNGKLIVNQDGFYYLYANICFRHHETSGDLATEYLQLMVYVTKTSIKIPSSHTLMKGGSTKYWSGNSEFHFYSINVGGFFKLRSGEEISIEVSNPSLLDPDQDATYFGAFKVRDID
# T3: human RANK-L, full length, membrane-bound, expressed on HEK293T cells (human, UniProt O14788 1-317)
# T3 construct: whole, on cells; also called hRANK-L
# T3 sequence (looked up): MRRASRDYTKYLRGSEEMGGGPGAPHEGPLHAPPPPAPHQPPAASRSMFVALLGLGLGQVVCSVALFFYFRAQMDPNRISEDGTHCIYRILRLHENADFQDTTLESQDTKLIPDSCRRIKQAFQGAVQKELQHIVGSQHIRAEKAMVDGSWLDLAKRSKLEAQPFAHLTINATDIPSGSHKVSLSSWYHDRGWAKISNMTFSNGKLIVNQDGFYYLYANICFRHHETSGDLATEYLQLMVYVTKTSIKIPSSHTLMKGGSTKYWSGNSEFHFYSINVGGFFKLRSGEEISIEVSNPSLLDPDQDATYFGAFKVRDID
# T4: CD40 ligand (UniProt P29965 113-261, limits assumed)
# T4 sequence (looked up): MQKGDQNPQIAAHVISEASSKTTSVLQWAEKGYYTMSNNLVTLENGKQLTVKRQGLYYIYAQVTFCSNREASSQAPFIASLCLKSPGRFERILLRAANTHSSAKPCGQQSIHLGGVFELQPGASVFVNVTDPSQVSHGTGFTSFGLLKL
# T5: cynomolgus RANK-L, full length, membrane-bound, expressed on HEK293T cells (cynomolgus monkey, UniProt A0A7N9DBU4 1-317)
# T5 construct: whole, on cells; also called cyno RANK-L
# T5 sequence: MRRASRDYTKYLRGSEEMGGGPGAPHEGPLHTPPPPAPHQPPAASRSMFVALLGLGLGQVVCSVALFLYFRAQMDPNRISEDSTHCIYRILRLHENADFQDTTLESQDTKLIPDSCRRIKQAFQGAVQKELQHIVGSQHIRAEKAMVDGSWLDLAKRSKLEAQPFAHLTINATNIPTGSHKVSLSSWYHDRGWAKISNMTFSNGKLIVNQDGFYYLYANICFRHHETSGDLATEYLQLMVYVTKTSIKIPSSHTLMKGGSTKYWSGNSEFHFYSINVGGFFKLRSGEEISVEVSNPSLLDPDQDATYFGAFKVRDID
# Key:
# mouse RANK-L = target: T1, mouse RANK-L; assay: ELISA, set-up as for human RANK-L
# Description: (§1) Therefore 2 μg/ml neutravidin was coated overnight at 4° C. The plates were washed 5 times with 300 μl PBS and then blocked with […] 1% casein/PBS for 2 hours at room temperature. […] After extensive washing with PBS, varying concentrations of Nanobodies starting from 500 nM to 160 pM diluted in 1% casein/PBS were added to the wells and the plates were incubated for 1 hour at room temperature. Bound Nanobodies were detected by subsequent incubations of a primary mouse anti-myc antibody and a secondary anti mouse-HRP conjugate (DAKO, Glostrup, Denmark) and using TMB-H2O2 (Pierce, Rockford, Ill., USA) substrate cocktail. The reaction was stopped with H₂SO₄ and the OD was read at 450 nm.
# human RANK-L [1] = target: T2, human RANK-L; assay: ELISA (ED50), biotin-hRANK-L on neutravidin
# Description: as §1
# human RANK-L [2] = target: T2, human RANK-L; assay: AlphaScreen, biotin-hRANK-L / RANK-huFc beads
# Description: To this mixture, the RANK acceptor beads and the streptavidin donor beads were added and further incubated for 1 hour at room temperature. Fluorescence was measured by reading plates on the EnVision Multilabel Plate Reader (Perkin Elmer) using an excitation wavelength of 680 nm and an emission wavelength of 520 nm.
# human RANK-L [3] = target: T2, human RANK-L; assay: AlphaScreen, biotin-hRANK-L / RANK-huFc beads; remark: listed apart in the source
# human RANK-L [4] = target: T2, human RANK-L; assay: AlphaScreen, biotin-hRANK-L / RANK-huFc beads; remark: listed apart in the source
# human RANK-L [5] = target: T2, human RANK-L; assay: FMAT, ALEXA647-hRANK-L / RANK on HEK293T cells
# [6] = target: T3, human RANK-L, full length, …; assay: FACS, HEK293T with human RANK-L, 16 pM Nanobody
# Description: (§2) Human embryonic kidney cells (HEK293T) were grown in Dulbecco's modified Eagles's medium supplemented with 10% fetal bovine serum (FBS), […] L-glutamine, 0.4 mM sodium pyruvate. […] After 48 hours, transfected cells were subjected to FACS analysis. […] Then cells were washed three times with FACS buffer. Bound Nanobodies were detected by subsequent incubations of a primary mouse anti Myc antibody (30 min at 4° C. (2 μg/ml)) and a second incubation with goat anti mouse-Phycoerythrin (PE) (Jackson Laboratories) for another 30 min at 4° C. Finally, after washing, the cells were resuspended in PBS+10% FBS+TO-PRO®-3 (5 nM) (Molecular Probes®, Invitrogen, Merelbeke, Belgium) and cell surface fluorescence expressed as mean PE fluorescence, was measured using flow cytometry.
# [7] = target: T3, human RANK-L, full length, …; assay: FACS, HEK293T with human RANK-L, 80 pM Nanobody
# Description: as §2
# [8] = target: T3, human RANK-L, full length, …; assay: FACS, HEK293T with human RANK-L, 3.2 pM Nanobody
# Description: as §2
# [9] = target: T3, human RANK-L, full length, …; assay: FACS, HEK293T with human RANK-L, 400 pM Nanobody
# Description: as §2
# [10] = target: T3, human RANK-L, full length, …; assay: FACS, HEK293T with human RANK-L, 2000 pM Nanobody
# Description: as §2
# TNFα = target: T6, TNFα (UniProt P01375 77-233); assay: competition ELISA on RANK-L-coated plates, 1 nM Nanobody preincubated with the ligand
# T6 construct: also called TNF-alpha
# CD40 ligand = target: T4, CD40 ligand; assay: as above
# TRAIL = target: T7, TRAIL (UniProt P50591 114-281, limits assumed); assay: as above
# T7 construct: also called tumor necrosis factor-related apoptosis inducing ligand
# human RANK-L [11] = target: T2, human RANK-L; assay: cell-based or functional assay
# human RANK-L [12] = target: T2, human RANK-L; assay: FMAT, ALEXA647-hRANK-L / RANK on HEK293T cells; remark: listed apart in the source
# Description: HEK293T cells were transiently transfected with the plasmid expressing full length RANK using Fugene6 as described in example 3. After 24 hours aliquots of 60 μl (7.5×10³ cells) were plated into FMAT system 384-well plates (PE Biosystems, CA, US) and allowed to adhere for 24 h. After overnight adherence, culture supernatant was removed by gently tapping the plate. […] The plates were scanned after 10 hours of incubation. Cell surface fluorescence was measured by 8200 Cellular Detection System (Applied Biosystems, Foster City, Calif., US) which is a fluorescence macro-confocal, biological binding event analyzer that enables mix-and-read assays with live cells.
# [13] = target: T5, cynomolgus RANK-L, full length, …; assay: FACS, HEK293T with cynomolgus RANK-L, 400 pM Nanobody
# Description: as §2
# [14] = target: T5, cynomolgus RANK-L, full length, …; assay: FACS, HEK293T with cynomolgus RANK-L, 2000 pM Nanobody
# Description: as §2
# human RANK-L [15] = target: T2, human RANK-L; assay: AlphaScreen, biotin-hRANK-L / RANK-huFc beads; remark: listed apart in the source
# human RANK-L [16] = target: T2, human RANK-L; assay: AlphaScreen, biotin-hRANK-L / RANK-huFc beads; remark: listed apart in the source
# human RANK-L [17] = target: T2, human RANK-L; assay: FMAT, ALEXA647-hRANK-L / RANK on HEK293T cells; remark: listed apart in the source
# human RANK-L [18] = target: T2, human RANK-L; assay: SPR Biacore 3000, hRANK-L on CM5, 100 nM Nanobody
# Description: (§3) Binding kinetics of the humanized versions of Nanobodu RANL13 were also analysed by Surface Plasmon Resonance (Biacore 3000). […] Nanobody binding was assessed at one concentration (100 nM). Each Nanobody was injected for 4 minutes at a flow rate of 45 μl/min to allow binding to chip-bound antigen. Next, binding buffer without Nanobody was sent over the chip at the same flow rate to allow spontaneous dissociation of bound Nanobody.
# human RANK-L [19] = target: T2, human RANK-L; assay: SPR Biacore 3000, hRANK-L on CM5, 100 nM Nanobody; only indicative (one concentration)
# Description: as §3
# T7 sequence (P50591 114-281 limits assumed): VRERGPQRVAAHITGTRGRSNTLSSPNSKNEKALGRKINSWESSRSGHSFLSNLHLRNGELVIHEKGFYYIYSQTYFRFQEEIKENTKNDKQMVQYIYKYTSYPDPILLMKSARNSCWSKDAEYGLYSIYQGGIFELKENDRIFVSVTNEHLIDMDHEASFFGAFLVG
# T6 sequence (P01375 77-233 limits assumed): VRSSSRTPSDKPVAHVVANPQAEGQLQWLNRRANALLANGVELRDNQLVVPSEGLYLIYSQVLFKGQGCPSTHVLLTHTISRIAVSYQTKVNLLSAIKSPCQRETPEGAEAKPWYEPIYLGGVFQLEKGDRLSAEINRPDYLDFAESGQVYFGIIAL
Binder,binding result (mouse RANK-L),EC50 (human RANK-L [1]),IC50 (human RANK-L [2]),IC50 (human RANK-L [3]),PE mean fluorescence [6],PE mean fluorescence [7],PE mean fluorescence [8],PE mean fluorescence [9],PE mean fluorescence [10],IC50 (human RANK-L [15]),IC50 (human RANK-L [16]),IC50 (human RANK-L [17]),koff (human RANK-L [18]),Kd (human RANK-L [19]),kon (human RANK-L [19]),binding result (TNFα),binding result (CD40 ligand),binding result (TRAIL),other results
"RANKL15 (VHH, not shown: small tags and cut ends) VHH: EVQLVESGGGLVQAGGSLRLSCAAAGGTFRNYVMGWFRQAPGKEREFVTAISTGGSWTGYVDSVKDRFTISRDNTKNTVYLQMASLKPEDTAVYYCAATTPATTYLPRSERQYDYWGQGTQVTVSS",no binding (tested: 500 nM to 160 pM),0.266 nM,0.283 nM,0.572 nM,250,715,124,2640,7720,,,,,,,no binding (tested: approximately 100 nM),no binding (tested: approximately 100 nM),no binding (tested: approximately 100 nM),"RANK-L induced NF-kappaB activation (luciferase reporter, HEK293T cells), IC50 (human RANK-L [11]): 10 nM; IC50 (human RANK-L [12]): 0.534 nM; PE mean fluorescence [13]: 3410; PE mean fluorescence [14]: 11000"
RANKL13hum5 (VHH) VHH: EVQLVESGGGLVQPGGSLRLSCAASGFTFSSYPMGWFRQAPGKGREFVSSITGSGGSTYYADSVKGRFTISRDNAKNTLYLQMNSLRPEDTAVYYCAAYIRPDTYLSRDYRKYDYWGQGTLVTVSS,,,,,,,,,,0.091 nM,0.188 nM,0.137 nM,0.00021 s⁻¹,0.26 nM,800000 M⁻¹ s⁻¹,,,,
RANKL18hum6 (VHH) VHH: EVQLVESGGGLVQPGGSLRLSCAASGRTFSRSAMGWFRQAPGKGREFVGFITGSGGTTYYADSVKGRFTISRDNAQNPVYLQMNSLRPEDTAVYYCAVYRRTYISSTYSESSEYDYWGQGTLVTVSS,,,,,,,,,,0.138 nM,0.087 nM,0.38 nM,6.72e-05 s⁻¹,0.16 nM,500000 M⁻¹ s⁻¹,,,,

# Continued, in another order:
binding result (mouse RANK-L),EC50 (human RANK-L [1]),IC50 (human RANK-L [2]),IC50 (human RANK-L [3]),PE mean fluorescence [6],PE mean fluorescence [7],PE mean fluorescence [8],PE mean fluorescence [9],PE mean fluorescence [10],IC50 (human RANK-L [15]),IC50 (human RANK-L [16]),IC50 (human RANK-L [17]),koff (human RANK-L [18]),Kd (human RANK-L [19]),kon (human RANK-L [19]),Binder,binding result (TNFα),binding result (CD40 ligand),binding result (TRAIL),other results
no binding (tested: 500 nM to 160 pM),0.542 nM,0.137 nM,0.341 nM,1350,2280,381,3360,4860,,,,,,,"RANKL9 (VHH, not shown: c-myc and His6 tags) VHH: EVQLVESGGGLVQAGGSLRLTCAASGRTFRSYAMGWFRQAPGKEREFVAAINYSGGSTNYADSVKGRFTISRDNAKNTLYLQMNSLEPEDTAVYYCAAGSGYASLSYYSTERAYTYWGQGTQVTVSS",no binding (tested: approximately 100 nM),no binding (tested: approximately 100 nM),no binding (tested: approximately 100 nM),IC50 (human RANK-L [4]): 0.238 nM; IC50 (human RANK-L [5]): 0.13 nM
no binding (tested: 500 nM to 160 pM),0.385 nM,0.288 nM,0.777 nM,434,1700,347,4580,12800,,,,,,,"RANKL6 (VHH, not shown: c-myc and His6 tags) VHH: EVQLVESGGGLMQTGGSLRLSCAASGVTYSYYTASWFRQAPGKEREFVAAISPSGNTYYADSVKGRFTISRDNGKHTMYLQMNSLNPEDTAVYFCAIRATDSIYYASSYRHWGQGTQVTVSS",no binding (tested: approximately 100 nM),no binding (tested: approximately 100 nM),no binding (tested: approximately 100 nM),
